The values below come from publication PMC8866119 (Nature, 2021).

This test deals with SARS-CoV-2 Omicron (B.1.1.529) RBD (SARS-CoV-2 Omicron B.1.1.529 (BA.1), strain).

B1: BD55-5339 (antibody, V domains shown)
VH: EVQLVESGEGLVQPGGSLRISCAASGFTFSNYPMHWVRQAPGQGLESVSSITSNGDGTFYANSVKGRFTISRDNSKNTLYLQMGSLRTEDTALYFCAREVAEQLDCYFDLWGRGTLVTVSS
VL: DIQMTQSPSSLSASVGDRVTITCRASQSIRTYLNWYQHKPGKAPKLLIFAASSLQSGVPSRFSGSGSGTDFSLTISSLQPEDFATYYCQQSYITPPITFGQGTRLEIK
Turning to B1, the binding result was “binds”.

B2: BD55-1237 (antibody, V domains shown)
VH: QVQLVESGGGVVQPGRSLRLSCATSDFTSNTYGIHWVRQAPGKGLEWVAVIWSDGSHEYYADSVKGRFTISRDNSKNTVYLQMASLRPEDTALYYCAKSPWLRGSFDVWGQGTVVPVSS
VL: NFLLTQPHSVSESPGKTVTISCSGSSGYIASNYVQWYQQRPGSAPIVVMYEDNQRPSGVPDRFSGSIDSSSNSASLTISGLKTEDEADYYCQSYDSDNRAWVFGGGTKLTVL
For the molecule B2, the binding result is given as “binds”.

B3: COVA1-16 (antibody, V domains shown)
VH: QVQLVQSGAEVKKPGASVKVSCKASGYTFTSYYMHWVRQAPGQGLEWMGIINSSGGSTSYAQKFQGRVTMTRDTSTSTVYMELSSLRSEDTAVYYCARPPRNYYDRSGYYQRAEYFQHWGQGTLVTVSS
VL: DIQLTQSPSSLSASVGDRVTITCQASQDISNYLNWYQQRPGKAPKLLIYDASNLETGVPSRFSGSGSGTDFTFTISSLQPEDIATYYCQQYDNPPLTFGGGTKLEIK
As to B3, the binding result is “binds”.

B4: BD55-3500 (antibody, V domains shown)
VH: QVQLVESGGGVVQPGRSLRLSCAASGFIFSRYDIHWVRQTPGKGLEWVALIRYDGSDKYYADSVKGRFTISRDNSKNTLYLQMNSLRVEDTAVYYCAKEGIQGYSGYDYFWTGFYFDYWGQGTLVTVSS
VL: not shown
As to B4, the binding result is reported as “binds”.

B5: COV2-2828 (antibody, V domains shown)
VH: EVQLVESGGGLVKPGGSLRLSCAASGFTFRDYSMNWVRQAPGKGLEWVSSISSGGSYIYYADSVKGRFTISRDNAKNSLYLQMNSLRAEDTAVYYCARGGSILWWLIDYWGQGTLVTVSS
VL: NFMLTQPHSVSESPGKTVTISCTGSSGSIASNYVQWYQQRPGSAPTTVIYEDNQRPSGVPDRFSGSIDSSSNSASLTISGLKTEDEADYYCQSYDSTSRVVFGGGTKLTVL
With B5, the binding result is reported as “binds”.

B6: DH1045 (antibody, V domains shown)
VH: QLQLQESGPGLVKPSETLSLTCTVSGGSISSSGYYWGWIRQPPGKGLEWIGTIYYGGSTYYSPSLKSRVTISVDTSKNQFSLKLSSVTAADTAVYYCASQQWLRGNFDYWGQGTLVTVSS
VL: NFMLTQPHSVSESPGKTVTISCTGSSGSIASNYVQWYQQRPGSAPTTVIYEDNQRPSGVPDRFSGSIDSSSNSASLTISGLKTEDEADYYCQSYDSSTYWVFGGGTKLTVL
Consider B6, for which the binding result was “binds”.

B7: BD55-3304 (antibody, V domains shown)
VH: QVQLVESGGGVVQPERSLRLSCAASGFIFSNYGMHWVRQAPGKGLEWVALIWYDGSNRYYADSVKGRFTISRDNSRNTLYLQMNSLRAEDTAMYYCAKSALRGYSGYDFFSRVSDEYYFDNWGQGTLVTVSS
VL: DIVMTQSPDSLAVSLGERATISCKSSQSVLYSSNNQNYLAWYQQKPGQPPKLLIKWASTRESGVPDRFSGSGSGTDFTLTITSLQAEDVAVYYCQQYFDTPHFGQGTKLEIK
For B7, the binding result is listed as “binds”.

B8: DH1047 (antibody, V domains shown)
VH: QVQLVQSGAEVKKPGASVQVSCQASANTFTNHYIHWVRQAPGQGLEWMGIIYPTGGNTIYAQGFQGRVTMTRDTSLNTIYLELSSLRSEDTAVYYCARDVRVDDSWSGYDLLSGGTYFDYWGQGTLVTVSS
VL: not shown
With B8, the binding result is “binds”.

B9: BD55-5259 (antibody, V domains shown)
VH: QITLKESGPTLVKPTQTLTLTCTFSGFSLTMPEVGVAWVRQPPGKALEWLALIYGDDNKRYSPSLESRLTITKDSSKNQVVLTMTNLDSVDTATYYCARRKFLWDSDPVAFDYWGLGTLVIVSS
VL: DIVMTQTPLSLPVTLGQPASISCRSSQSLVHIDGNIYLSWLQQRPGQPPRLLIYKISNRFSGVPDRFSGSGSGTDFTLKISRVEAEDVGVYYCMQATQFPHEMYTFGQGTKLEIR
As for B9, the binding result is “binds”.

B10: BD-801 (antibody, V domains shown)
VH: DVQLVESGGGLVQPGGSRRLSCAASGFMFSSYWMNWVRQAPGKGLEWVASIKEDGSEKYYVDSVKGRFTISRDNAKNSLFLQMNSLRAEDTAVYYCARKCRGYYDRSGYYYKCAFDIWGQGTMVTVSS
VL: PYVLTQPPSVSVAPGKTARITCGGNNLGTNSVHWYQQKPGQAPVLVMYYDSDRPSGIPERFSGSNSGNTATLTISRVDAGDEADYYCQVWDSSSDHWVFGGGTKLTVL
Regarding B10, the binding result was “binds”.

B11: BD55-5267 (antibody, V domains shown)
VH: QVQLQESGPGLVKPSGTLSLTCAVSGGSISSSNWWSWVRQPPGKGLEWIGEIYHSGSTNYNPSLKSRVTISVDKSKNKFSLKLSSVTAADTAVYFCARAGWIESGYDAFVGYFDYWGQGTLVTVSS
VL: DIQMTQSPSSLSASVGDRVTITCRASQGISSSLAWYQQKPGKAPDLLLYAASGLESGVPSRFSGSGSGTDFTLSISSLQPEDFATYYCQQYYSPPRTFGQGTKLEIK
Consider B11, for which the binding result was “binds”.

B12: BD-708 (antibody, V domains shown)
VH: QVQLVESGGGVVQPGRSLRLSCAASGFTLSNYAMHWVRQAPGTGLEWVAVISDDGSIKFYADSVKGRFTISRDNSKNTLYLQMNSLRAEDTAVYYCARDGDDSSGYFFDYWGQGTLVTVSS
VL: DIQMTQSPSSLSASVGDRVTITCRASQGINNFLAWYQQKPGKAPKLLLYSASRLESGVPSRFSGSGSGTDYTLTISSLQPEDFATYYCQQYYSTLALTFGGGTKVEIK
Consider B12, for which the binding result was “binds”.

B13: BD55-5226 (antibody, V domains shown)
VH: EVQLVESGGGLVKPGGSLRLSCAASGFTFSSYSMNWVRQAPGKGLEWVSSISMTSSYRHYADSVRGRFTISRDNANNSLFLQMNSLRAEDTAVYFCARDSNLRTGDANDYWGQGTLVTVSS
VL: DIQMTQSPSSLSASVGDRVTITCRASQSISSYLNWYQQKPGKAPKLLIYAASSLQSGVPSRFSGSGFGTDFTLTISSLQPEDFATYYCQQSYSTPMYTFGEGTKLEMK
B13: the binding result is “binds”.
